Target: full-length BCL6 construct overexpressed in HEK293T cells (ternary complex nanoBRET) (UniProt P41182)

Sequence of full-length CDK9 construct overexpressed in HEK293T cells (ternary complex nanoBRET) (P50750 whole entry, one chain of several): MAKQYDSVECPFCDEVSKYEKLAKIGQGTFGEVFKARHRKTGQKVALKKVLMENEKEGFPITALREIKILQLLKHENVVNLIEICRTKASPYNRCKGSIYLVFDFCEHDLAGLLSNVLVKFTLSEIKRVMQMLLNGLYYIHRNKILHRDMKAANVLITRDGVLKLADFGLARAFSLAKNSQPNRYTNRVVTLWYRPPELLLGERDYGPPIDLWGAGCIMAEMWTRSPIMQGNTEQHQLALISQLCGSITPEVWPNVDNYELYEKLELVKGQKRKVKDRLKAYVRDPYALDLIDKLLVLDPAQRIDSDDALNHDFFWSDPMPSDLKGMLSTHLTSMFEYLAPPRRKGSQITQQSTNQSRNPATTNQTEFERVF

Substance: full-length CDK9 construct overexpressed in HEK293T cells (ternary complex nanoBRET) (from UniProt P50750 1-372) (enzyme)
- cell killing of SUDHL5 DLBCL cells by CDK-TCIP1, 72-hour cell viability assay: 6.9 nM

Reference: article doi:10.1101/2023.10.23.563687
